The text below walks through data of paper PMC9789324 (Food Chemistry: Molecular Sciences, 2022).

Assay in all cases: crystal structure
Series [1] concerns the target Len c 1, lentil vicilin (7S globulin) core region (Lens culinaris Medicus (lentil)).
In series [2] the target is Pis s 1, pea vicilin (7S globulin) core region (Pisum sativum L. (pea)).
The series “crystal structure” concerns the molecule itself.

The term stoichiometry N denotes a count of units in the complex or per binding partner. With “Len c 1, lentil vicilin (7S globulin) core region (domain or fragment)”, the stoichiometry N in series [1] was 3.
In the case of “Pis s 1, pea vicilin (7S globulin) core region (domain or fragment)”, in series [2], the stoichiometry N came out at 3.

B1: Pis s 2, pea convicilin (7S globulin) core region (domain or fragment, Pisum sativum L. (pea))
chain: SQERRNPFLFKSNKFLTLFENENGHIRLLQRFDKRSDLFENLQNYRLVEYRAKPHTIFLPQHIDADLILVVLSGKAILTVLSPNDRNSYNLERGDTIKLPAGTTSYLVNQDDEEDLRLVDLVIPVNGPGKFEAFDLAKNKNQYLRGFSKNILEASYNTRYETIEKVLLEEQEKDRKRRQQGEETDAIVKVSREQIEELKKLAKSSSKKSLPSEFEPINLRSHKPEYSNKFGKLFEITPEKKYPQLQDLDLFVSCVEINEGALMLPHYNSRAIVVLLVNEGKGNLELLGLKNEQQEREDRKERNNEVQRYEARLSPGDVVIIPAGHPVAITASSNLNLLGFGINAENNERNFLSGSDDNVISQIENPVKELTFPGSVQEINRLIKNQKQSHFANA
As to B1, the “stoichiometry N” value in “crystal structure” worked out at 3.
